Patent US20260007756A1, “COMPOUND AND USE THEREOF” (COHERENT BIOPHARMA (SUZHOU) LIMITED, priority 2022, published 2026)
In brackets after ≈: the same amount, converted by molar mass. Like-named read-outs stand apart in the source and are kept apart here.

Tests used:
C4-2 = details: C4-2, 72 h, CellTiter-Glo
Experimental: Cells were prepared in advance, trypsinized, collected, counted, diluted to 1.5×10^4 cells/mL in a complete cell culture medium, and plated in 96-well plates. The diluted cell suspension was added at 100 μL/well, and negative and blank control wells were set on each plate. The 96-well plates with the added cells were incubated overnight at 37° C. in a 5% CO2 incubator.
Samples were serially diluted with medium (serially 3-fold diluted from 10 μM) to 9 concentrations. The medium in the plates was discarded, and the drug solutions were added at 100 μL per well to a 96-well plate in triplicate. Negative and blank controls were set. The plates were incubated at 37° C. for 72 h in a 5% CO2 incubator.
The CellTiter-Glo buffer was thawed and warmed to room temperature, and the CellTiter-Glo substrate was warmed to room temperature. The CellTiter-Glo buffer was added to the flask containing CellTiter-Glo substrate to dissolve the substrate, thereby preparing a CellTiter-Glo working solution, which was then vortexed slowly to complete dissolution. The cell culture plates were equilibrated at room temperature for 30 min, before the CellTiter-Glo working solution was added at 50 μL/well (about half the volume of cell culture medium in each well). The plate was covered by aluminum foil to keep out of light. The culture plate was shaken on an orbital shaker for 2 min to induce cell lysis. The culture plate was left to stand at room temperature for 10 min to stabilize the luminescence signals. The luminescence signal was detected on a microplate reader (Molecular Devices SpectraMax iD5).
Four-parameter curves were fitted using GraphPad Prism 8.0.2 to give IC50 values.

cathepsin B-human liver = cathepsin B-human liver (Homo sapiens, UniProt P07858); details: 37° C.
Experimental: • 1) The conjugate compounds were prepared into 500 μg/mL stock solutions with 0.1% TFA-acetonitrile water (1:1); • 2) 60 μL of 500 μg/mL compound stock solution was added to 536 μL of 50 mM NaOAc (containing 1 mM EDTA+10 mM Cys), before 4 μL of cathepsin B (CB enzyme) was added, and the mixture was well mixed by gentle shaking. • 3) The cleavage reaction system in step 2) was transferred to a thermostatic incubator at 37° C. for 0 h, 1 h, 2 h, 4 h, or 24 h of incubation. Samples were taken and loaded at various time points for LC-MS analysis.

22RV1 = format: cell-based, human; details: 22RV1, 72 h, CellTiter-Glo
Text: (§1) Negative and blank controls were set.

MDA-MB-231 = format: cell-based, human; details: MDA-MB-231, 72 h, CellTiter-Glo
Text: as §1

Plasma stability study 2 = format: in vitro ADME; details: mouse plasma, 37° C.; for remaining at 0.5 h, 100 μg/mL / remaining at 1 h, 100 μg/mL / remaining at 2 h, 100 μg/mL / remaining at 4 h, 100 μg/mL / remaining at 6 h, 100 μg/mL: read-out: Residual rate of principal component
Experimental: • 1) The conjugate compounds were prepared into 1 mg/mL stock solutions with 0.1% TFA-acetonitrile water (1:1); • 2) 10 μL of 1 mg/mL compound stock solution was added into 90 μL of fresh plasma, and the mixture was well mixed by gentle shaking, and transferred to a thermostatic incubator at 37° C. for 0 h, 0.5 h, 1 h, 2 h, 4 h, 6 h, or 24 h of incubation; • 3) at the time points, samples were taken out and 300 μL of methanol solution (containing 10 ng/ml of terfenadine) was added for protein precipitation; • 4) the mixture was centrifuged (13 min, 4° C., 12000 rpm) and the supernatant was collected, and preserved in a −80° C. refrigerator; after collection, the samples were loaded for LC-MS analysis.

Solubility study in PBS = format: physicochemical; details: aqueous buffer, thermodynamic from solid; PBS (pH 7.2 to 7.4); read-out: Solubility, concentration
Experimental: The mixture was vortexed for 2 min until the solid was dissolved. The solubility was calculated as: C=m/V, C: concentration, m: sample weight, V: PBS total volume.

LNCaP = assay: Expansion inhibition of tumor cells (Example 9, CellTiter-Glo); format: cell-based, human; details: 72 h
Text: (§2) Information on cell lines: LNCaP (human prostate cancer cell) and VCaP (human prostate cancer cell)
as §1

VCaP = assay: as above; format: cell-based, human; details: 72 h
Text: as §2, §1

sulfatase [1] = assay: in vitro; details: isolated sulfatase, pH 7.4
Experimental: (§3) • 1) The compounds were formulated into 500 μg/mL stock solutions with PBS (pH 7.4); • 2) 60 μL of 500 μg/mL compound stock solution was added to 420 μL PBS (pH 7.4), before 60 μL of 0.2 U/mL plasmin (or 60 μL of 0.5 U/mL sulfatase) was added, and the mixture was well mixed by gentle shaking; • 3) The cleavage reaction system in step 2) was transferred to a thermostatic incubator at 37° C. for 0 h, 1 h, 2 h, 4 h, or 24 h of incubation. Samples were taken and loaded at various time points for LC-MS analysis.

sulfatase [2] = details: PBS pH 7.4, 37° C.
Experimental: as §3

Row | SMILES | IC50 (C4-2) [µM] | IC50 (22RV1) [µM] | IC50 (MDA-MB-231) [µM] | CR20274 release rate (actual release/theoretical release) (Plasma stability study 2; 0 h) [%] | Residual rate of principal component (Plasma stability study 2; 0 h) [%] | CR20274 release rate (actual release/theoretical release) (Plasma stability study 2; 0.5 h) [%] | remaining at 0.5 h, 100 μg/mL (Plasma stability study 2; 0.5 h) [%] | CR20274 release rate (actual release/theoretical release) (Plasma stability study 2; 1 h) [%] | remaining at 1 h, 100 μg/mL (Plasma stability study 2; 1 h) [%] | CR20274 release rate (actual release/theoretical release) (Plasma stability study 2; 2 h) [%] | remaining at 2 h, 100 μg/mL (Plasma stability study 2; 2 h) [%] | CR20274 release rate (actual release/theoretical release) (Plasma stability study 2; 4 h) [%] | remaining at 4 h, 100 μg/mL (Plasma stability study 2; 4 h) [%] | CR20274 release rate (actual release/theoretical release) (Plasma stability study 2; 6 h) [%] | remaining at 6 h, 100 μg/mL (Plasma stability study 2; 6 h) [%] | CR20274 release rate (actual release/theoretical release) (Plasma stability study 2; 24 h) [%] | Residual rate of principal component (Plasma stability study 2; 24 h) [%] | further results
1 | CC[C@@H]1C(=O)N(C)c2cnc(Nc3ccc(-c4cn([C@H]5CC[C@@H](N(CCOCCC#Cc6cccc7c6CN(C6CCC(=O)NC6=O)C7=O)C(=O)OCc6ccc(NC(=O)[C@H](CCCNC(N)=O)NC(=O)[C@@H](NC(=O)[C@H](CCC(=O)O)NC(=O)COCCOCCn7cc(C[C@H](NC(=O)[C@H](CCCCN)NC(=O)[C@H](CC(=O)O)NC(=O)[C@H](CC(=O)O)NC(=O)Cc8ccc(CNC(=O)NCCCC[C@H](NC(=O)N[C@@H](CCC(=O)O)C(=O)O)C(=O)O)cc8)C(=O)N[C@@H](CCCCNC(=O)CC[C@H](NC(=O)c8ccc(NCc9cnc%10[nH]c(N)nc(=O)c%10n9)cc8)C(=O)O)C(N)=O)nn7)C(C)C)cc6)CC5)nn4)cc3OC)nc2N1C1CCCC1 (some centres unmarked) [CR202V4] | 0.0847 | 0.222 | 0.234 | −0.12 | 84.13 | 0.04 | 75.9 | 0.11 | 74.3 | 0.17 | 78.2 | 0.30 | 61.3 | 0.42 | 70.4 | 2.62 | 1.36 | CR20274 release rate of compounds after cleavage (cathepsin B-human liver; 0 h): 0%; Principal component residue of compounds after cleavage (cathepsin B-human liver; 0 h): 100.00%; CR20274 release rate of compounds after cleavage (cathepsin B-human liver; 1 h): 100%; Principal component residue of compounds after cleavage (cathepsin B-human liver; 1 h): 0.00%; CR20274 release rate of compounds after cleavage (cathepsin B-human liver; 2 h): 100%; Principal component residue of compounds after cleavage (cathepsin B-human liver; 2 h): 0.00%; CR20274 release rate of compounds after cleavage (cathepsin B-human liver; 4 h): 100%; Principal component residue of compounds after cleavage (cathepsin B-human liver; 4 h): 0.00%; CR20274 release rate of compounds after cleavage (cathepsin B-human liver; 24 h): 100%; Principal component residue of compounds after cleavage (cathepsin B-human liver; 24 h): 0.00%; solubility at 2 min (Solubility study in PBS): 8000 µg/mL (≈ 2580 µM)
2 | Cc1ncsc1-c1ccc(C(C)NC(=O)C2CC(O)CN2C(=O)C(NC(=O)COCCCOCCNC(=O)CC2N=C(c3ccc(Cl)cc3)c3c(sc(C)c3C)-n3c(C)nnc32)C(C)(C)C)cc1 (centres unmarked) [CR202ES, ARV-771] | – | – | – | – | – | – | – | – | – | – | – | – | – | – | – | – | – | IC50 (LNCaP; Homo sapiens): 0.0087 µM; IC50 (VCaP; Homo sapiens): 0.0109 µM
3 | Cc1ncsc1-c1ccc(CNC(=O)[C@@H]2C[C@@H](O)CN2C(=O)[C@@H](NC(=O)COCCCCOc2ccc(-c3ccc(N4C(=S)N(c5ccc(C#N)c(C(F)(F)F)c5)C(=O)C4(C)C)cc3)cc2)C(C)(C)C)cc1 [CR202Z5, ARCC-4] | – | – | – | – | – | – | – | – | – | – | – | – | – | – | – | – | – | IC50 (LNCaP; Homo sapiens): 0.373 µM; IC50 (VCaP; Homo sapiens): 0.183 µM
4 | Cc1ncsc1-c1ccc([C@H](CC(=O)N2CCC(N3CCC(C#Cc4ccc(C(=O)NC5C(C)(C)C(Oc6ccc(C#N)c(Cl)c6)C5(C)C)cc4)CC3)CC2)NC(=O)[C@@H]2C[C@@H](O)CN2C(=O)[C@@H](NC(=O)C2(F)CC2)C(C)(C)C)cc1 (some centres unmarked) [CR202Z9, ARD-69] | – | – | – | – | – | – | – | – | – | – | – | – | – | – | – | – | – | IC50 (LNCaP): 0.418 µM; IC50 (VCaP): 0.0124 µM
5 | Cc1ncsc1-c1ccc(CNC(=O)[C@@H]2C[C@@H](OC(=O)OCc3ccc(NC(=O)[C@H](CCCNC(N)=O)NC(=O)[C@@H](NC(=O)COCCOCCn4cc(C[C@H](NC(=O)[C@H](CCCCN)NC(=O)[C@H](CC(=O)O)NC(=O)[C@H](CC(=O)O)NC(=O)Cc5ccc(CNC(=O)NCCCC[C@H](NC(=O)N[C@@H](CCC(=O)O)C(=O)O)C(=O)O)cc5)C(=O)N[C@@H](CCCCNC(=O)CC[C@H](NC(=O)c5ccc(NCc6cnc7[nH]c(N)nc(=O)c7n6)cc5)C(=O)O)C(N)=O)nn4)C(C)C)cc3)CN2C(=O)[C@@H](NC(=O)CCCCCCCCCCNC(=O)c2cc3c(cc2CS(C)(=O)=O)-c2cn(C)c(=O)c4[nH]cc(c24)CN3c2ncc(F)cc2F)C(C)(C)C)cc1 [CR202W8] | – | – | – | – | – | – | – | – | – | – | – | – | – | – | – | – | – | IC50 (LNCaP): 0.0053 µM; IC50 (VCaP): 0.0027 µM
6 | CC[C@@H]1C(=O)N(C)c2cnc(Nc3ccc(-c4cn([C@H]5CC[C@@H](N(CCOCCC#Cc6cccc7c6CN(C6CCC(=O)NC6=O)C7=O)C(=O)OCc6ccc(NC(=O)[C@H](CCCNC(N)=O)NC(=O)[C@@H](NC(=O)COCCOCCn7cc(C[C@H](NC(=O)[C@H](CCCCN)NC(=O)[C@H](CC(=O)O)NC(=O)[C@H](CC(=O)O)NC(=O)Cc8ccc(CNC(=O)NCCCC[C@H](NC(=O)N[C@@H](CCC(=O)O)C(=O)O)C(=O)O)cc8)C(=O)N[C@@H](CCCCNC(=O)CC[C@H](NC(=O)c8ccc(NCc9cnc%10[nH]c(N)nc(=O)c%10n9)cc8)C(=O)O)C(N)=O)nn7)C(C)C)cc6)CC5)nn4)cc3OC)nc2N1C1CCCC1 (some centres unmarked) [CR202V5] | 0.144 | 0.779 | 0.412 | 0.02 | 94.75 | 0.17 | 101 | 0.25 | 94.9 | 0.37 | 94.7 | 0.94 | 90.6 | 0.97 | 80.4 | 3.92 | −1.03 | CR20274 release rate of compounds after cleavage (cathepsin B-human liver; 0 h): 0%; Principal component residue of compounds after cleavage (cathepsin B-human liver; 0 h): 100.00%; CR20274 release rate of compounds after cleavage (cathepsin B-human liver; 1 h): 100%; Principal component residue of compounds after cleavage (cathepsin B-human liver; 1 h): 2.37%; CR20274 release rate of compounds after cleavage (cathepsin B-human liver; 2 h): 100%; Principal component residue of compounds after cleavage (cathepsin B-human liver; 2 h): 0%; CR20274 release rate of compounds after cleavage (cathepsin B-human liver; 4 h): 100%; Principal component residue of compounds after cleavage (cathepsin B-human liver; 4 h): 0%; CR20274 release rate of compounds after cleavage (cathepsin B-human liver; 24 h): 100%; Principal component residue of compounds after cleavage (cathepsin B-human liver; 24 h): 0%; solubility (Solubility study in PBS): 2800 µg/mL (≈ 941 µM)
7 | CC[C@@H]1C(=O)N(C)c2cnc(Nc3ccc(-c4cn([C@H]5CC[C@@H](N(CCOCCC#Cc6cccc7c6CN(C6CCC(=O)NC6=O)C7=O)C(=O)OC(Cc6cn(CCOCCOCCNC(=O)COCCOCCn7cc(C[C@H](NC(=O)[C@H](CCCCN)NC(=O)[C@H](CC(=O)O)NC(=O)[C@H](CC(=O)O)NC(=O)Cc8ccc(CNC(=O)NCCCC[C@H](NC(=O)N[C@@H](CCC(=O)O)C(=O)O)C(=O)O)cc8)C(=O)N[C@@H](CCCCNC(=O)CC[C@H](NC(=O)c8ccc(NCc9cnc%10[nH]c(N)nc(=O)c%10n9)cc8)C(=O)O)C(N)=O)nn7)nn6)c6ccc(OS(=O)(=O)O)c([N+](=O)[O-])c6)CC5)nn4)cc3OC)nc2N1C1CCCC1 (some centres unmarked) [CR202W1] | 0.0432 | 0.112 | 0.12 | 0.68 | 105.30 | 0.63 | 89.4 | 0.83 | 103 | 0.80 | 105 | 0.96 | 108 | 0.88 | 84.8 | 2.82 | −2.67 | remaining at 1 h, 55.6 µg/mL (sulfatase [1]): 89%; remaining at 2 h, 55.6 µg/mL (sulfatase [1]): 80%; remaining at 4 h, 55.6 µg/mL (sulfatase [1]): 69%; remaining at 24 h, 55.6 µg/mL (sulfatase [1]): 37%; CR20274 release rate of compounds after cleavage (sulfatase [2]; 0 h): 0%; Principal component residue of compounds after cleavage (sulfatase [2]; 0 h): 97%; CR20274 release rate of compounds after cleavage (sulfatase [2]; 1 h): 9%; CR20274 release rate of compounds after cleavage (sulfatase [2]; 2 h): 15%; CR20274 release rate of compounds after cleavage (sulfatase [2]; 4 h): 27%; CR20274 release rate of compounds after cleavage (sulfatase [2]; 24 h): 56%; solubility at 2 min (Solubility study in PBS): 8100 µg/mL (≈ 2650 µM)
